Experimental findings from paper PMC5667929, “Combinatorial action of Grainyhead, Extradenticle and Notch in regulating Hox mediated apoptosis in Drosophila larval CNS” (PLoS Genetics, 2017) are described below.

The target of the test is T1, His tagged Grh (551-1333 aa) (Drosophila, UniProt P13002 551-1333).
T1 construct: Grainyhead (Grh), Drosophila transcription factor, residues 551-1333; also called His-Grh; Grainyhead; source: bacterial culture (induced two hours with 0.5mM IPTG at 18°C), in lysate for the pull-down
Briefly: native gel or EMSA; proteins (100 or 200 ng) mixed with DNA oligos of motifs from the 1Kb F3B3 enhancer; complexes seen on DNA only; 20 ul, room temperature, 30 minutes; binding buffer with Tris pH 7.5, KCl, MgCl2, EDTA, DTT, BSA, glycerol, polydIdC. The note with it: both partners purified. (Mobility shift assays separate free from complexed probe on a gel.)

T1 sequence (P13002 551-1333): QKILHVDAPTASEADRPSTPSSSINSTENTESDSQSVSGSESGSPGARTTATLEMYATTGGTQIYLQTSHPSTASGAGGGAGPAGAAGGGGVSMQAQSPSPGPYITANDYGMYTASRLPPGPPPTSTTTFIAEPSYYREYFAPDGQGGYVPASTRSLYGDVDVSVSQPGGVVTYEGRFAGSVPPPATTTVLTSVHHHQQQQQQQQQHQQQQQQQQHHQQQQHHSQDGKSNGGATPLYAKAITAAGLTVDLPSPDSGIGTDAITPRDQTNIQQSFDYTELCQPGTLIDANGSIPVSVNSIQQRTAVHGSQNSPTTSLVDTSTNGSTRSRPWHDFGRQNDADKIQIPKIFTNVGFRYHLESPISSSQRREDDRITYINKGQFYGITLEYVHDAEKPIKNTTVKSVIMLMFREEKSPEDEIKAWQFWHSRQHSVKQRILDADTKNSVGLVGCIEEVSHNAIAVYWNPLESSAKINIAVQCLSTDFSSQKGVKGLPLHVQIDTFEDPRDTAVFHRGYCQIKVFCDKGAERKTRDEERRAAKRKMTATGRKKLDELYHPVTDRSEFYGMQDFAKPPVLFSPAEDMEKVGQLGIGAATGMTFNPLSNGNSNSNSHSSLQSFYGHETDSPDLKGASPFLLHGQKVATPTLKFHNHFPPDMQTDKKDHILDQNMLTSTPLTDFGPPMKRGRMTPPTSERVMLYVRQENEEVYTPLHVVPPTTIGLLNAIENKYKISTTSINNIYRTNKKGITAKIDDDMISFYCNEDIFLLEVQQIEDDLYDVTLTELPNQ

B1: 6X His-tagged AbdA (residues 261-590) (domain or fragment)
chain: not shown
notes: Abdominal-A (AbdA), Drosophila Hox protein, residues 261-590; also called Hox
With B1, the binding result is “binds”.
